In experiment [1] the target is 3-pTza peptide (Biotin-AminocaproicAcid-A.G.A.G.3-pTza.A.G.A.G). The experiment in a line: BLI; Octet RED96e; biotinylated peptides captured on streptavidin biosensors at 20 nM; Fab in solution, 20-200 nM; 1x HBS-T, 1% BSA.
Experiment [2] shares this target. The description is as above. The source holds these as a separate data set.
In experiment [3] the target is T1, 3-pHis peptide (Biotin-AminocaproicAcid-A.G.A.G.H.A.G.A.G phosphorylated by phosphoramidate).
T1 construct: His-peptide, phosphorylated on His5; the phosphoramidate reaction gives a mixture of non-phosphorylated, 1-pHis, 3-pHis and di-pHis peptide; also called Biotinylated ACLYana-3-pHis; ACLYana-pHis; source: synthetic peptide, phosphorylated with potassium phosphoramidate; not shown: biotin, N-terminal, kept
T1 peptide: {Biotin-Ahx}-AGAG[3‑pHis]AGAG
The experiment is described as above.

Experiment [4] addresses T2, 3-pTza peptide (Biotin-AminocaproicAcid-A.G.A.G.3-pTza.A.G.A.G).
T2 chain: {Biotin-Ahx}-AGAG[3‑pTza]AGAG
The experiment in a line: BLI; biotinylated peptide captured on streptavidin biosensors at 20 nM; IgG in solution at 20-200 nM; Octet HTX; 1x HBS-T, 1% BSA. As to conditions: both partners purified.

The target of experiment [5] is T1, 3-pHis peptide …. The experiment is described as above. As to conditions: both partners purified.
Experiment [6] addresses 3-pTza peptide (Biotin-AminocaproicAcid-A.G.A.G.3-pTza.A.G.A.G). Put plainly: BLI; Octet HTX; biotinylated peptides captured on streptavidin biosensors at 20 nM; IgG in solution, 20-200 nM; 1x HBS-T, 1% BSA.
Experiment [7] concerns the target T3, 3-pHis form of ACLY (120 kDa) (Homo sapiens (HEK293T, endogenous), UniProt P53396, 3-phosphohistidine (site not stated)).
T3 construct: ACLY (ATP-citrate lyase), 120 kDa band on the immunoblot; source: endogenous, HEK293T lysate
The experiment in a line: immunoblot; HEK293T whole cell lysate, 30 µg, alkaline 12% SDS-PAGE and alkaline blotting at 4 °C; 0.5 µg/mL IgG as primary antibody, 1 h at room temperature; HRP secondary antibody. The note with it: one partner purified. (In general: Immunoblotting shows a protein as a band on a membrane.)

Experiment [8] concerns the target T4, 3-pHis form of the a-subunit of SCS (30 kDa) (Homo sapiens (HEK293T, endogenous), UniProt P53597, 3-phosphohistidine (site not stated)).
T4 construct: alpha subunit of SCS (succinyl-CoA synthetase), 30 kDa band on the immunoblot; source: endogenous, HEK293T lysate
The experiment is described as above. The note with it: one partner purified.

The target in experiment [9] is T5, 3-pTza peptide (Biotin-AminocaproicAcid-A.G.A.G.3-pTza.A.G.A.G) (synthetic construct).
T5 chain: {Biotin-Ahx}-AGAG[3‑pTza]AGAG
Put plainly: BLI. A general note: In BLI a coated tip is dipped into the sample, and binding shifts an interference pattern.

Experiment [10] concerns the target T1, 3-pHis peptide …. The experiment in a line: BLI; Octet HTX; biotinylated peptides captured on streptavidin biosensors at 20 nM; IgG in solution, 20-200 nM; 1x HBS-T, 1% BSA.

Numbering of substitutions follows the chain as printed. Names and notes keep the numbering of the source. *1 amine or outer side, *2 acyl side, *3 side chain or, on linkers, in order; H or OH if unused. Where no end group is shown, it is not given here. [ ]: non-standard residue; d: D form. The star is where a group is joined. 3‑pTza = 3-phosphotriazolyl alanine (also given as 3-phosphoryl-triazolylalanine); 3‑pHis = 3-phosphohistidine, O=C([C@H](Cc1cn(P(=O)(O)O)cn1)N[*:1])[*:2]; Biotin = O=C1N[C@H]2[C@H](CS[C@H]2CCCCC(=O)*)N1; Ahx = NCCCCCC(=O)O Where only a bound is given, the exact number is not on record here.

T4 sequence (P53597 41-346): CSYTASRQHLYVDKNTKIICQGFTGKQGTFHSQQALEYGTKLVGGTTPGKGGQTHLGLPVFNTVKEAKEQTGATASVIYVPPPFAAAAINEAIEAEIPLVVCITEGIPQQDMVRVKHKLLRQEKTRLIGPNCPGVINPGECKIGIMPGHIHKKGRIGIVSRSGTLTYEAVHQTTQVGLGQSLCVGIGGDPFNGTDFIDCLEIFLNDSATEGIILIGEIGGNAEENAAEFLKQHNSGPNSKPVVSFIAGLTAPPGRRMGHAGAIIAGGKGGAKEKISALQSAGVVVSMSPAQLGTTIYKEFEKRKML
T3 sequence (P53396 whole entry): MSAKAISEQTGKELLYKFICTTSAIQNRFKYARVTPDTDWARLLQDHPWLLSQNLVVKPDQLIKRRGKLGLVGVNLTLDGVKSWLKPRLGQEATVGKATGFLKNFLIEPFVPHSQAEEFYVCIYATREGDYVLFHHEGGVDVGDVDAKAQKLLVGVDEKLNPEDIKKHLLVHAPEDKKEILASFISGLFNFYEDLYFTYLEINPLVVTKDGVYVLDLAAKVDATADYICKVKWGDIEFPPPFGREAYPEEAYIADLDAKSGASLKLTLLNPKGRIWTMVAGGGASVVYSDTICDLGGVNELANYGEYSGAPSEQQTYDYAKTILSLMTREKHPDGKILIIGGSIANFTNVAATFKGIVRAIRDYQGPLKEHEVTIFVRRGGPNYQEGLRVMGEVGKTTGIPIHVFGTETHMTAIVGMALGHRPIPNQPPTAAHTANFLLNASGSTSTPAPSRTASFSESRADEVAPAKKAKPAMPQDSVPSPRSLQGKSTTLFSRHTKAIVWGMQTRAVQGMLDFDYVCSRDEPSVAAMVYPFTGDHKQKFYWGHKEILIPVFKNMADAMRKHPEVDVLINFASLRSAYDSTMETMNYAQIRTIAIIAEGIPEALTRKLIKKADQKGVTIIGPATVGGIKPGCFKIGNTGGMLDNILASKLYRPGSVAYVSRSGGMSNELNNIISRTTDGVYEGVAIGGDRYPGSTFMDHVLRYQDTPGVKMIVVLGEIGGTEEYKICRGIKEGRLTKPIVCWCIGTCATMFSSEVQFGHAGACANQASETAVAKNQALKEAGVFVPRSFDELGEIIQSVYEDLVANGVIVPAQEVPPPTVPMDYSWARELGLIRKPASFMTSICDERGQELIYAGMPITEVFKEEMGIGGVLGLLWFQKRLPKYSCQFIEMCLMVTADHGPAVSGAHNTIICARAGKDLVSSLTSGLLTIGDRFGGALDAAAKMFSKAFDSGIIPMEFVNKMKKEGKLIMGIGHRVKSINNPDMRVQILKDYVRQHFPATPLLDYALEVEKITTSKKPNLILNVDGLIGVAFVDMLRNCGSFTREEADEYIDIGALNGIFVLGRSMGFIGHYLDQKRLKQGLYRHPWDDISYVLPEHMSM

B1: hSC44 Fab (Fab, V domains shown)
VH: EVQLVESGGGLVQPGGSLRLSCTASGFSIDSYGFSWVRQAPGKGLEHIGYLTAGGRAFYASWAKSRSTITRNTNENTVTLKMNSLRAEDTAVYYCAKLGSGNPVAIWGQGTLVTVSS
VL: DIQMTQSPSSLSASVGDRVTITCRASQSVWRNKNVAWYQQKPGKAPKRLIYAIASLYSGVPSRFSGSGSGTDFTLTISSLQPEDFATYYCVGHYGSENDAYYAFGQGTKVEIK
Usually Kd stands for the free concentration of one partner at which half of the binding sites on the other are occupied at equilibrium, for simple one-to-one binding. The low end stands for tighter binding, the high end for weaker binding. As usually defined, the koff is a measure of how fast the partners let go of each other. Low values mean slow dissociation, high ones fast dissociation. For orientation: kon means a measure of how fast the partners come together. Read a high kon as faster complex formation. Regarding B1, the Kd in experiment [1] is 1.62 nM; in experiment [2], 1.5 nM; in experiment [3] it was 40.5 nM. Also, the koff in experiment [1] came to 8.16e-05 s⁻¹; in experiment [3] it was 0.00235 s⁻¹. Further, the on-rate constant (kon) in [1] was 50600 M⁻¹ s⁻¹; in [3], 57900 M⁻¹ s⁻¹.

B2: hSC44.20 IgG (antibody, V domains shown)
VH: B1 VH with S100T, N102S, P103R, V104F
VL: B1 VL with M4L
notes: human IgG1, kappa light chain
In [4], B2 came in with a koff below 1e-07 s⁻¹ and an on-rate constant (kon) of 257000 M⁻¹ s⁻¹. Binding in [5] was put at a Kd of 21 nM.

B3: hSC44.20 IgG (antibody, V domains shown)
VH: B1 VH with S100T, N102S, P103R, V104F
VL: B1 VL
notes: as the heavy chain of m2 with the stated CDR-H3 changes (Kabat numbering); as the light chain of m1; source: Expi293, transfected, purified (CaptoL, SEC); copies: 2 + 2
B3 displayed a Kd in [6] below 0.001 nM. In addition, the binding result in experiment [7] and in experiment [8] was “binds” each time.

B4: hSC44 IgG (antibody, V domains shown)
VH: B1 VH
VL: B1 VL
The molecule B4 returned a koff in [9] of 9.3e-05 s⁻¹. The Kd in experiment [6] is 1.2 nM.

B5: hSC44.20.N32F^L IgG (antibody, V domains shown)
VH: B1 VH with S100T, N102S, P103R, V104F
VL: B1 VL with N34F
notes: as the heavy chain of m4 (heavy chain of m2 with the stated CDR-H3 changes, Kabat numbering); as the light chain of m1 with N32F in CDR-L1 (Kabat numbering); source: Expi293, transfected, purified (CaptoL, SEC); copies: 2 + 2
Take B5: the equilibrium dissociation constant (Kd) is below 1.54 nM in experiment [6] and 1.6 nM in [10]. Besides, the binding result in experiment [7] and in experiment [8] was “binds” each time.

B6: hSC44.20.N32Y^L IgG (antibody, V domains shown)
VH: B1 VH with S100T, N102S, P103R, V104F
VL: B1 VL with N34Y
On to B6, for which the Kd in experiment [6] was below 0.001 nM; in experiment [10], 9.5 nM.

The record behind these values is PMC12660843, “Using phage display for rational engineering of a higher-affinity humanized 3’ phosphohistidine-specific antibody” (Communications Chemistry, 2025).
